Source: PMC10989928, “Cell division factor ZapE regulates Pseudomonas aeruginosa biofilm formation by impacting the pqs quorum sensing system” (mLife, 2023)

Target: T1, MBP-PqsH, recombinant (P. aeruginosa PAO1, UniProt Q9I0Q0 1-382)
T1 construct: also called PqsH protein; source: E. coli BL21 (DE3), pMAL-C5x, purified (Dextrin Beads 6FF, Mono Q ion exchange, Superdex 200 gel filtration)
T1 sequence: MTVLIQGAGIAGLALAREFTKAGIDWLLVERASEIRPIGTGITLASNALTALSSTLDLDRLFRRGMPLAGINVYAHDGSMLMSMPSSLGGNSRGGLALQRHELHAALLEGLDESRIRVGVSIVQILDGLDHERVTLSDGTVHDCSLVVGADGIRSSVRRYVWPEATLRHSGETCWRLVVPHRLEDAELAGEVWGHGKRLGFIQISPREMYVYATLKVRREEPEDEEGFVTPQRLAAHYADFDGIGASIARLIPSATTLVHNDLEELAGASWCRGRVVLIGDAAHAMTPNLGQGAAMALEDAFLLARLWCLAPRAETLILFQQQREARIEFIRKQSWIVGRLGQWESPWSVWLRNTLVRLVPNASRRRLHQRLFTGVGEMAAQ
Assay: SPR
Settings: both partners purified

B1: HIS-ZapE, recombinant (natural protein, P. aeruginosa PAO1, UniProt Q9HVX7 1-364, looked up)
chain: MTPLERYQADLQRPDFFHDAAQANAVKHLQRLYDDLVAADHAKPGLFGKLLGRKSGGPVKGLYFWGGVGRGKTYLVDTFFESLPFEQKVRTHFHRFMKRVHEELKTLKGEKNPLTIIGKRFADEARVICFDEFFVSDITDAMILATLLEELFKNGVSLVATSNIVPDGLYKDGLQRARFLPAIALLKEHTEIVNVDSGVDYRLRALEQAELFHWPLSEQVEEEMARSFKALTPDCAKAQRDEALMIENREIRARLTCDDVAWFEFRELCDGPRSQNDYIELAKIFHAVLISNVEQMGVTKDDMARRFINLVDEFYDRSVKLIISAEVELKDLYSGGRLEFEFQRTLSRLLEMQSHEYLTRPHRP
notes: also called PA4438; ZapE protein; source: E. coli BL21 (DE3), pET28a, purified (Ni NTA beads, Mono Q ion exchange, Superdex 200 gel filtration)
binding result: binds
